In patent US20220306733A1:
Positions count from the first letter of the chain named.

B1: anti-TIGIT antibody clone 26493 (antibody, V domains shown)
VH: EVQLVESGGGLVQPGRSLRLSCAASGFTFGDYAMHWVRQAPGKGLEWVSGITWNSGSIGYADSVKGRFTISRDNAKNSLYLQMNSLRAEDTALYYCAKPVPKSRGLDVWGQGTMVTVSS
VL: DIQLTQSPSSVSASVGDRVTITCRASQGISSWLAWYQQKPGKAPKLLIYGASSLQSGVPSRFSGSGSGTDFTLTISSLQPEDFATYYCQQAFYLPWTFGGGTKVEIK
B2: anti-TIGIT antibody clone 29527 (antibody, V domains shown)
VH: QVQLVESGGGVVQPGRSLRLSCAASGFTFSSSYMHWVRQAPGKGLEWVAVIGADGSNKYYADSVEGRFTISRDNSKNTLYLQMNSLRAEDTALYYCAKPVPRRRGLDVWGQGTMVTVSS
VL: B1 VL
B3: anti-TIGIT antibody clone 29523 (antibody, V domains shown)
VH: B2 VH with Q1E, S30G, S32Y, G52W, A53P, Y59L, E65K, R102K, R103S, G105A
VL: B1 VL
B4: anti-TIGIT antibody clone 29520 (antibody, V domains shown)
VH: B1 VH with E1Q, G30R, S57L, K102R, S103L
VL: B1 VL
B5: anti-TIGIT antibody clone 26486 (antibody, V domains shown)
VH: QVQLQESGPGLVKPSETLSLTCAVSGYSISSGYYWAWIRQPPGKGLEWIGSIYHSGSTYYNPSLKSRVTISVDTSKNQFSLKLSSVTAADTAVYYCAIEGANYYDFGYVAFDIWGQGTMVTVSS
VL: EIVMTQSPATLSVSPGERATLSCRASQSVSSNLAWYQQKPGQAPRLLIYGASTRATGIPARFSGSGSGTEFTLTISSLQSEDFAVYYCQQSPPWPRTFGGGTKVEIK
B6: anti-TIGIT antibody clone 29499 (antibody, V domains shown)
VH: QLQLQESGPGLVKPSETLSLTCTVSGGSISSSRYYWAWIRQPPGKGLEWIGSIGTSGSTYYNPSLKSRVTISVDTSKNQFSLKLSSVTATDTAVYYCAIEGANFRDFGYVAFDIWGQGTMVTVSS
VL: B5 VL
B7: anti-TIGIT antibody clone 29494 (antibody, V domains shown)
VH: B6 VH with L2V, S32G, R33S, W36L, G54F, T55R, K66E, T90A, R105K
VL: B5 VL
B8: anti-TIGIT antibody clone 31288 (antibody, V domains shown)
VH: B6 VH with S32G, R33S, W36L, G54F, T55R, K66E, T90A, R105K, M120T
VL: B5 VL
B9: anti-TIGIT antibody clone 32931 (antibody, V domains shown)
VH: B6 VH with S32G, R33S, W36L, G54F, T55R, K66E, T90A, R105K, M120T
VL: B5 VL with Q27K, G50F, S91T, P92S
B10: anti-TIGIT antibody clone 29513 (antibody, V domains shown)
VH: QVQLVQSGAEVKKPGSSVKVSCKASGGTFQNYAISWVRQAPGQGLEWMGVIVPIFGTANYAQKFQGRVTVTADESTSTAYMELSSLRSEDTAVYYCARLHLGQKAYYGMDVWGQGTTVTVSS
VL: DIQMTQSPSSLSASVGDRVTITCRASQSISSYLNWYQQKPGKAPKLLIYAASSLQSGVPSRFSGSGSGTDFTLTISSLQPEDFATYYCQQRYVFPPTFGGGTKVEIK

These binders were tested against Polyspecificity reagent (PSR): biotinylated soluble membrane proteins of CHO cells (assay: flow cytometry, biotinylated PSR on IgG-presenting yeast).

Polyspecificity Reagent (PSR) Score (0-1)	Binder
0 score 0-1	B1
0.12 score 0-1	B2
0.12 score 0-1	B3
0.32 score 0-1	B4
0 score 0-1	B5
0.1 score 0-1	B6
0 score 0-1	B7
0 score 0-1	B8
0 score 0-1	B9
0.01 score 0-1	B10
